{"source": "patent US7550429B2", "about": "“Glycoproteins having lipid mobilising properties and therapeutic applications thereof” (Aston University, priority 1998, dated 2009)", "molecules": {"B1": {"name": "Mouse LMF: 43 kDa glycoprotein lipid mobilising factor purified from murine adenocarcinoma MAC16 (Example 1) (protein, UniProt Q64726 18-307, looked up)", "Zinc-alpha-2-glycoprotein": "QETGSYYLTFLYTGLSRPSKGFPRFQATAFLNDQAFFHYNSNSGKAEPVGPWSQVEGMEDWEKESQLQRAREEIFLVTLKDIMDYYKDTTGSHTFQGMFGCEITNNRSSGAVWRYAYDGEDFIEFNKEIPAWIPLDPAAANTKLKWEAEKVYVQRAKAYLEEECPEMLKRYLNYSRSHLDRIDPPTVTITSRVIPGGNRIFKCLAYGFYPQRISLHWNKANKKLAFEPERGVFPNGNGTYLSWAEVEVSPQDIDPFFCLIDHRGFSQSLSVQWDRTRKVKDENNVVAQPQ"}, "B2": {"name": "Human LMF: 43 kDa glycoprotein lipid mobilising factor purified from urine of cachectic cancer patients (Example 2); Zn-α2-glycoprotein type (protein, UniProt P25311 21-298, looked up)", "Zinc-alpha-2-glycoprotein": "QENQDGRYSLTYIYTGLSKHVEDVPAFQALGSLNDLQFFRYNSKDRKSQPMGLWRQVEGMEDWKQDSQLQKAREDIFMETLKDIVEYYNDSNGSHVLQGRFGCEIENNRSSGAFWKYYYDGKDYIEFNKEIPAWVPFDPAAQITKQKWEAEPVYVQRAKAYLEEECPATLRKYLKYSKNILDRQDPPSVVVTSHQAPGEKKKLKCLAYDFYPGKIDVHWTRAGEVQEPELRGDVLHNGNGTYQSWVVVAVPPQDTAPYSCHVQHSSLAQPLVVPWEAS"}, "B3": {"name": "Zn-α2-glycoprotein (protein, listed as Homo sapiens)", "chain": "QENQDGRYSLTYIYTGLSKHVEDVPAFQALGSLNDLQFFRYNSKDRKSQPMGLWRQVEGMEDWKEDSQLQKAREDMETLKDIVEYYNDSNGSHVLQGRFGCEIENNRSSGAFWKYYYDGKDYIEFNKEIPAWVPFDPAAQITKQKWEAEPVYVQRAKAYLEEECPATLRKYLKYSKNILDRQDPPSVVVTSHQAPGEKKKLKCLAYDFYPGKIDVHWTRAGQVQEPELRGDVLHNGNGTYQSWVVVAVPPQDTAPYSCHVQHSSLAQPLVVPWEAS", "notes": "Zn-α2-glycoprotein purified about 670-fold from fresh human plasma by the method of Ohkubo et al"}}, "key": {"[1]": {"test_system": "murine epididymal adipocytes", "experiment": "Lipolytic assay: glycerol release from isolated adipocytes", "assay_type": "cell-based, mouse", "conditions": "for Lipid mobilizing activity, glycerol released: 5 μg human or 10 μg mouse LMF, incubated overnight at 4° C. with or without pAb 10 μg, mean±SEM, three determinations; for Specific activity: purified product after final stage HPLC Resource-iso; for Stimulation of glycerol release (lipolysis): different doses, freshly isolated murine epididymal adipocytes, FIG. 9", "protocol": "Single cell suspensions of white adipocytes were prepared from finely minced epididymal fat pads of male BKW mice using collagenase digestion, substantially as described by S. A. Beck et al. (see above-mentioned reference 14). Samples to be assayed were incubated with 10^5-2×10^5 adipocytes (determined by means of a haemocytometer) for 2 h at 37° C. in 1 ml of Krebs-Ringer bicarbonate buffer, pH 7.2. The concentration of glycerol released was determined enzymatically by the method of Wieland as referred to above (see also GB2217330A). Control samples containing adipocytes alone were analyzed to determine the spontaneous glycerol release. Lipid mobilizing activity was expressed as μmol glycerol released/10^5 adipocytes/2 h."}, "[2]": {"test_system": "murine adipocyte plasma membrane adenylate cyclase", "experiment": "Adenylate cyclase assay with adipocyte plasma membranes", "assay_type": "biochemical, mouse", "conditions": "GTP-dependent stimulation", "protocol": "In a typical procedure white adipocytes were isolated from mouse epididymal fat pads as referred to above except that the cells were washed in 250 mM sucrose, 2 mM ethyleneglycol bis(β-aminoethylether)-N,N,N′,N′ (EGTA), 10 mM Tris-HCl (pH 7.4). Adipocytes were resuspended in 20 ml of the above buffer and homogenised by aspirating through a Swinny filter at least 10 times. The cell homogenate was then centrifuged at 300 g for 5 min, the fat cake removed from the surface and the remaining pellet and infranatant transferred to clean tubes. These were centrifuged at 30,000 g for 1 h at 4° C. and the membrane pellet formed was resuspended in the sucrose buffer (200 to 400 μl). Plasma membranes were separated from other organelle membranes on a self-forming gradient of Percoll™ colloidial silica particles. […]\nAn adenylate cyclase assay used was based on that developed by Salomon et al. (reference 16). […] Background binding was determined by running samples without [α-^32P] […]\nSamples containing labelled nucleotides were diluted to 1 ml with water and loaded onto Dowex™ 50W8-400 ion-exchange columns primed with 10 ml of water. […] The radioactivity was determined using a Tri-carb™ 2000A scintillation analyser."}, "[3]": {"test_system": "ex-breeder male NMRI mice", "experiment": "In vivo fat depletion, iv LMF in ex-breeder male NMRI mice", "parameters": "species or system mouse", "protocol": "(§1) Non-esterified fatty acids (NEFA) were determined using a Wako-ASC-ACOD kit (Wako Chemical GmbH, Neuss, Germany). Triglycerides were determined using a Triglyceride kit (Sigma Chemical Co., Poole, United Kingdom) and 3-hydroxybutyrate by a quantitative enzymatic determination kit (Sigma). Glucose was measured using a glucose analyser (Beckman, Irvine, Calif.) and glycerol was determined enzymatically using the method of Wieland as described in “Methods of Enzymatic Analysis” (Ed. Bergmeyer, H. U.) Vol. 3, pp 1404-1409, published by Academic Press, London (1974) (reference 13).\nFIG. 10 is a diagram showing change in body weight of ex-breeder male NMRI mice (30-40 g) produced by intravenous (iv) administration of LMF (8 μg) isolated from human urine as described in Example 2 (o) and of control mice administered PBS by iv injection (x).\nIn order to determine if the purified LMF isolated from human urine as in Example 2 was capable of fat depletion in vivo a sample of this LMF material ([…]) was injected into male ex breeder NMRI mice over a 72 h period. The LMF was injected at times 0, 17, 24, 41, 48, 62 and 72 hours and control mice were similarly injected with phosphate-buffered saline (PBS) at the same time points. The animals were killed at 89 h and the body composition and serum metabolite levels were determined. […] Changes in the body composition and serum metabolic levels are summarised in Table 5 and it will be seen that total body weight decreased by 3.6 g during the overall 89 h period of the experiment without change in food and water intake. […] Despite the fat mobilisation there were significant reductions in the serum concentrations of non-esterified fatty acids (NEFA), glycerol and glucose in mice receiving LMF."}, "ob/ob mice": {"test_system": "ob/ob mice", "experiment": "In vivo effect of iv LMF in obese ob/ob mice", "parameters": "species or system mouse", "protocol": "as §1\nFIG. 11 is a diagram similar to FIG. 10 showing change in body weight of ob/ob mice produced by iv administration of LMF (35 μg) (o) isolated from human urine as described in Example 2 and of control mice (x) administered PBS by iv injection. LMF was injected at times 0, 16, 24, 40, 48, 64, 72, 90, 96, 113, 120, 137 and 144 h; PBS was injected at the same time points. The animals were killed 160 h after the first injection. Results are expressed as mean±SEM for 5 animals per group.\nAs shown in FIG. 11 and by the data in Table 6, intravenous administration to obese ob/ob mice of LMF (35 μg) isolated from human urine produced a similar result. There was a decrease in total body weight which became significant within 24 h of the first injection and remained below that of the control group over the 160 h of the experiment."}, "[4]": {"conditions": "LMF 8 μg iv over 72 h, killed at 89 h"}, "[5]": {"conditions": "LMF 35 μg iv, 160 h after first injection"}}, "data": [{"molecule": "B1", "values": [{"measurement": "Lipid mobilizing activity, glycerol released", "setting": "[1]", "value": "0.0977 ± 0.02 μmole glycerol/10^5 adipocytes/2 h"}, {"measurement": "Specific activity", "setting": "[1]", "value": "50 μmol/10^5 adipocytes/mg protein"}]}, {"molecule": "B2", "values": [{"measurement": "Lipid mobilizing activity, glycerol released", "setting": "[1]", "value": "0.0062 ± 0.0002 μmole glycerol/10^5 adipocytes/2 h"}, {"measurement": "Stimulation of glycerol release (lipolysis)", "setting": "[1]", "value": "stimulated glycerol release with a comparable dose-response profile"}, {"measurement": "Specific activity", "setting": "[1]", "value": "164.3 μmol/10^5 adipocytes/mg protein"}, {"measurement": "Effect of α-chymotrypsin digestion on in vitro biological activity", "setting": "[1]; α-chymotrypsin digestion", "value": "chymotrypsin destroyed the in vitro biological activity"}, {"measurement": "GTP concentration at maximal stimulation of adenylate cyclase", "setting": "[2]", "value": 0.1, "unit": "µM"}, {"measurement": "Food intake", "setting": "[3]; LMF 8 μg iv over 72 h", "value": "8.0 ± 0.2", "unit": "g/day"}, {"measurement": "Water intake", "setting": "[3]; LMF 8 μg iv over 72 h", "value": "4.4 ± 0.4", "unit": "mL/day"}, {"measurement": "Body composition: Fat", "setting": "[3]; [4]", "value": "3.4 ± 0.4", "unit": "g"}, {"measurement": "Body composition: Non Fat", "setting": "[3]; [4]", "value": "9.6 ± 0.9", "unit": "g"}, {"measurement": "Body composition: Water", "setting": "[3]; [4]", "value": "18.3 ± 0.8", "unit": "g"}, {"measurement": "Serum Glucose", "setting": "[3]; [4]", "value": "186 ± 0.08", "unit": "mg/100 ml"}, {"measurement": "Serum Glycerol", "setting": "[3]; [4]", "value": "6.73 ± 0.45", "unit": "mM"}, {"measurement": "Serum NEFA", "setting": "[3]; [4]", "value": "0.95 ± 0.03", "unit": "mEq/l"}, {"measurement": "Final body weight", "setting": "[3]; LMF 8 μg iv, 7 injections over 72 h, killed at 89 h, mean±SEM, 5 mice", "value": "31.6 ± 2.2", "unit": "g"}, {"measurement": "Time until body weight significantly lower than PBS treated controls", "setting": "[3]; LMF iv, FIG. 10", "value": "≤ 41", "unit": "h"}, {"measurement": "Reduction in body fat content", "setting": "[3]; body composition analysis at 89 h", "value": 42, "unit": "%"}, {"measurement": "Decrease in total body weight", "setting": "[3]; overall 89 h period, no change in food and water intake", "value": 3.6, "unit": "g"}, {"measurement": "Final body weight", "setting": "ob/ob mice; LMF 35 μg iv, 13 injections over 144 h, 160 h after first injection, mean±SEM, 5 mice", "value": "69.5 ± 4.3", "unit": "g"}, {"measurement": "Body composition: Fat", "setting": "ob/ob mice; [5]", "value": "30.6 ± 0.7", "unit": "%"}, {"measurement": "Body composition: Non Fat", "setting": "ob/ob mice; [5]", "value": "17.4 ± 1.0", "unit": "%"}, {"measurement": "Body composition: Water", "setting": "ob/ob mice; [5]", "value": "53.7 ± 1.1", "unit": "%"}, {"measurement": "Glucose", "setting": "ob/ob mice; [5]", "value": "260 ± 12", "unit": "mg/100 ml"}, {"measurement": "Oxygen uptake", "setting": "ob/ob mice; [5]", "value": "0.55 ± 0.07", "unit": "μl/mgBAT/h"}, {"measurement": "Serum 3-Hydroxybutyrate", "setting": "ob/ob mice; [5]", "value": "0.44 ± 0.01", "unit": "mM"}, {"measurement": "Serum Glycerol", "setting": "ob/ob mice; [5]", "value": "5.31 ± 0.45", "unit": "mM"}, {"measurement": "Serum NEFA", "setting": "ob/ob mice; [5]", "value": "1.45 ± 0.45", "unit": "mEq/l"}, {"measurement": "Carcass fat", "setting": "ob/ob mice; LMF 35 μg iv, body composition analysis at 160 h", "value": "21.09 ± 0.99", "unit": "g"}, {"measurement": "Time until decrease in total body weight became significant", "setting": "ob/ob mice; after the first injection, FIG. 11", "value": "≤ 24", "unit": "h"}, {"measurement": "Initial body weight", "setting": "ob/ob mice; baseline before first injection", "value": "67.9 ± 2.9", "unit": "g"}]}, {"molecule": "B3", "values": [{"measurement": "Stimulation of glycerol release (lipolysis)", "setting": "[1]", "value": "stimulated glycerol release with a comparable dose-response profile"}, {"measurement": "GTP concentration at maximal stimulation of adenylate cyclase", "setting": "[2]", "value": 0.1, "unit": "µM"}]}]}
